What was measured:
GR DBD [1] = target: T1, GR DBD (human, UniProt P04150 412-506); experiment: MST
GR DBD [2] = target: T1, GR DBD; experiment: EMSA

T1 sequence (P04150 412-506): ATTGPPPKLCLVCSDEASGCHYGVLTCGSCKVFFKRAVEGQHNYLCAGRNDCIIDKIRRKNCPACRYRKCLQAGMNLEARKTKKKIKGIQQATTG

B1: GRE2 (Eif4ebp2 GBSe2) (dsDNA)
DNA 1: AGGCTGGGTACACAGAGTGCCCTGCC
DNA 2: GGCAGGGCACTCTGTGTACCCAGCCT
Work on B1 yielded a Kd (GR DBD [1]) of 204 nM.

B2: GRE (Gilz) / GREgilz (dsDNA)
DNA 1: TGAGTCAGAACATTGGGTTCCCACGG
DNA 2: CCGTGGGAACCCAATGTTCTGACTCA
Binder B2 has a Kd (GR DBD [1]) of 154 nM.

B3: NSP (non-specific probe) (dsDNA)
DNA 1: TGGGCTGAGGCTGGGTGTGGCCCGAC
DNA 2: GTCGGGCCACACCCAGCCTCAGCCCA
B3: no binding (GR DBD [2]).

B4: GRE2 mut (dsDNA)
DNA 1: AGGCTGGGTATACAGAATGCCCTGCC
DNA 2: GGCAGGGCACTCTGTGTACCCAGCCT
B4: no binding (GR DBD [2]).

B5: GRE1 mut (dsDNA)
DNA 1: TGAGTCAGGATTGAGTATTCTCACGG
DNA 2: CCGTGAGAACACTCAGTCCTGACTCA
B5: no binding (GR DBD [2]).

B6: GRE1 (Eif4ebp2 GBSe1) (dsDNA)
DNA 1: TGAGTCAGGACTGAGTGTTCTCACGG
DNA 2: CCGTGAGAACACTCAGTCCTGACTCA
B6 was tested, and the Kd (GR DBD [1]) was 195 nM.
